Tests used:
Format in all cases: in vivo, Balb/c mice
Colon26 cells [1] = assay: Example 2: Colon26 subcutaneous tumor mouse model, ENT and anti-SEMA4D MAb
Experimental: Colon26 cells (500,000 cells) were implanted subcutaneously into Balb/c mice. […] Statistical significance was determined using 2-way ANOVA, Mantel Cox Log Rank test, and Fisher's exact test, respectively. Prism reports results as non-significant (ns) at P>0.05, significant (symbolized by “*”) at 0.01<P≤0.05, very significant (“**”) at 0.001<P≤0.01, and extremely significant (“***”) at P≤0.001.

Colon26 cells [2] = assay: Example 1: Colon26 subcutaneous tumor mouse model, ENT and anti-SEMA4D MAb; details: MAb 67 10 mg/kg ip weekly x5 from day 2, ENT 20 mg/kg 3x/week x2 weeks from tumor volume ~300 mm^3, FIG. 2A
Experimental: Colon26 cells (500,000 cells) were implanted subcutaneously into Balb/c mice. […] Kaplan-Meier survival analysis was performed to assess survival function, change in tumor volume was measured to determine tumor growth rates, and frequency of complete tumor regression was evaluated by determining the percentage of tumor-free mice. Percent complete regression (% CR) was also stratified by tumors that exceeded at least 100 mm^3 before regressing. Statistical significance was determined using Mantel Cox Log Rank test for survival, 2-way ANOVA for tumor volume, and Fisher's exact test for CR. Prism reports results as non-significant (ns) at P>0.05, significant (symbolized by “*”) at 0.01<P≤0.05, very significant (“**”) at 0.001<P≤0.01, extremely significant (“***”) at P≤0.001, and highest significance (“****”) at P≤0.0001.

Colon26 cells [3] = assay: Example 3: Colon26 subcutaneous tumor mouse model, AZA and anti-SEMA4D MAb; details: MAb 67 10 mg/kg ip weekly x4 from day 2, AZA 0.8 mg/kg 3x/week x4 doses from tumor volume ~200 mm^3, FIG. 5A
Experimental: Colon26 cells (500,000 cells) were implanted subcutaneously into Balb/c mice.
Kaplan-Meier survival analysis was performed to assess survival function, change in tumor volume was measured to determine tumor growth rates, and frequency of complete tumor regression was evaluated by determining the percentage of tumor-free mice.

Nc1ccccc1NC(=O)c1ccc(CNC(=O)OCc2cccnc2)cc1 [ENT, pyridin-3-ylmethyl N-[[4-[(2-aminophenyl)carbamoyl]phenyl]methyl] carbamate, reference compound]
frequency of complete tumor regression (Colon26 cells [1]; Fisher's exact test): 25%
maximal tumor growth delay (TGD) (Colon26 cells [2]): 214%

B1: anti-SEMA4D/MAb 67: anti-SEMA4D monoclonal antibody, VH SEQ ID NO: 9 and VL SEQ ID NO: 10 (antibody, V domains shown)
VH: QVQLQQSGPELVKPGASVKISCKASGYSFSDYYMHWVKQSPENSLEWIGQINPTTGGASYNQKFKGKATLTVDKSSSTAYMQLKSLTSEESAVYYCTRYYYGRHFDVWGQGTTVTVSS
VL: DIVMTQSPASLAVSLGQRATISCKASQSVDYDGDSYMNWYQQKPGQPPKLLIYAASNLESGIPARFSGSGSGTDFTLNIHPVEEEDAATYYCQQSNEDPYTFGGGTKLEIK
modifications: Mab 67 VH; Mab 67 VL
maximal tumor growth delay (TGD) (Colon26 cells [1]; MAb 67 10 mg/kg weekly x5 from day 2, ENT 20 mg/kg 3x/week x2 weeks from tumor volume ~250 mm^3, FIG. 3A): 119%
maximal tumor growth delay (TGD) (Colon26 cells [2]): 107%
maximal tumor growth delay (TGD) (Colon26 cells [3]): 119%
